From article PMC6017478, “Exploring Alternative Radiolabeling Strategies for Sialic Acid-Binding Immunoglobulin-Like Lectin 9 Peptide: [^68Ga]Ga- and [^18F]AlF-NOTA-Siglec-9” (Molecules : A Journal of Synthetic Chemistry and Natural …, 2018)
Positions of bridges follow the written chain, without caps; N, C: chain ends. Residues, ends and D or L forms follow the SMILES beside them. Groups on a side chain read outwards from the residue. *: point of attachment. NOTA = O=C(O)CN1CCN(CC(=O)O)CCN(CC(=O)*)CC1; AEEA = NCCOCCOCC(=O)O

How the values were obtained:
[1] = assay type: physicochemical; settings: pH 7.6
Procedure: The distribution coefficient (Log D) was measured by adding 5 kBq of tracer into a mixture of PBS (pH 7.6) and 1-octanol (1:1, v/v). The solution was mixed thoroughly for 5 min at room temperature. After separation of phases by centrifugation (12,000× g, 6 min), 100 µL aliquots of each phase layer were taken for γ-counting to determine Log D. The test was repeated three times. Log D was calculated as Log D=log10 counts per minute in octanol/counts per minute in PBS .

[2] = rat, in vivo, iv
Procedure: The rats were subcutaneously injected with 50 µL turpentine oil (Sigma-Aldrich) into the right shoulder area (foreleg) to induce skin/muscle inflammation, which was allowed to develop for 24 h prior to PET imaging. For imaging and ex vivo analysis, the rats were anesthetized using isoflurane and intravenously injected with 17.7 ± 3.4 MBq of one of the two radiotracers via the tail vein cannula. Immediately after injection a dynamic 60-min PET scan was performed on four rats for [^68Ga]Ga-NOTA-Siglec-9 and four rats for [^18F]AlF-NOTA-Siglec-9. The data were acquired in list-mode and iteratively reconstructed with a 3-D ordered subsets expectation maximization algorithm with 8 iterations, 16 subsets, and a 2-mm full-width at half-maximum post-filter into 6 × 10 s, 4 × 60 s, 5 × 300 s, and 3 × 600 s time frames. After imaging, the rats were euthanized, and various tissues, including inflamed skin/muscle (inflamed area) from the right foreleg, skin from the left foreleg (control area), and healthy muscle from the left hind leg, were excised, weighed, and measured with a γ-counter. The ex vivo radioactivity measurements were decay-corrected from the time of injection, and the results were expressed as SUV. Plasma protein binding was measured from plasma samples taken from 60 min post-injections. […] Radioactivity of both the precipitate and the supernatant was measured by γ-counting.

In the case of `CC(C)C[C@@H]1NC(=O)CNC(=O)[C@H](CCCNC(=N)N)NC(=O)[C@H](Cc2c[nH]c3ccccc23)NC(=O)[C@H](CO)NC(=O)[C@H](CC(C)C)NC(=O)[C@H](CO)NC(=O)[C@H](CC(C)C)NC(=O)[C@H](CCCNC(=N)N)NC(=O)[C@H](C)NC(=O)[C@@H](N)CSSC[C@@H](C(=O)N2CCC[C@H]2C(=O)N[C@@H](CO)C(=O)N[C@@H](CCCCNC(=O)COCCOCCNC(=O)CN2CCN(CC(=O)O)CCN(CC(=O)O)CC2)C(=O)O)NC(=O)[C@H](CC(C)C)NC(=O)[C@H]([C@@H](C)O)NC1=O` [[^68Ga]Ga-NOTA-Siglec-9] [metal not drawn] (H-CARLSLSWRGLTLCPSK([AEEA-NOTA])-OH; disulfide 1-14), the “Log D” value [1] is reported as −3.2 ± 0.3 and the Plasma protein binding [2] is reported as 31.4 ± 3.4%.
